# Laboratory results published in US20200317817A1 (XOMA US, published 2020).
# How the values were obtained:
# [1] = target: T1, human PTH2R overexpressed on CHO cells (human, UniProt P49190 25-550); assay: flow cytometry on CHO cells overexpressing human PTH2R, 1 hr at 4 C, APC anti-human IgG
# T1 construct: whole, on cells; also called CHO human PTH2R
# Method: Increasing concentrations of anti-PTH1R antibodies were added to CHO cells overexpressing human PTH2R and incubated for 1 hr at 4° C. (FIG. 8). Cells were washed twice with FACS Buffer and antibody binding was detected with anti-human IgG APC. […] Anti-KLH.G2 was used a negative control for binding.
# PTH2R has a 51% homology to PTH1R. […] Following two washes, cells were incubated with Allophycocyanin (APC) AffiniPure F(ab′)₂ Fragment Goat Anti-Human IgG (H+L) (Jackson ImmunoResearch, West Grove, Pa.) for 20 minutes at 4° C. Cells were washed twice and resuspended in FACS Buffer. Samples were acquired using BD Cytometer (BD Biosciences, San Jose, Calif.) and data were analyzed using FlowJo (FlowJo, LLC, Ashland, Oreg.) and Prism (GraphPad Software, La Jolla, Calif.). […] Anti-KLH.G2 was used a negative control for binding.
# [2] = target: T2, human PTH1R overexpressed on Saos-2 cells (human, UniProt Q03431 27-593); assay: flow cytometry on Saos-2 cells overexpressing human PTH1R, in the presence of 1 uM PTH, PE anti-human IgG
# T2 construct: whole, on cells; also called Saos-2 human PTH1R cells
# T2 sequence (looked up): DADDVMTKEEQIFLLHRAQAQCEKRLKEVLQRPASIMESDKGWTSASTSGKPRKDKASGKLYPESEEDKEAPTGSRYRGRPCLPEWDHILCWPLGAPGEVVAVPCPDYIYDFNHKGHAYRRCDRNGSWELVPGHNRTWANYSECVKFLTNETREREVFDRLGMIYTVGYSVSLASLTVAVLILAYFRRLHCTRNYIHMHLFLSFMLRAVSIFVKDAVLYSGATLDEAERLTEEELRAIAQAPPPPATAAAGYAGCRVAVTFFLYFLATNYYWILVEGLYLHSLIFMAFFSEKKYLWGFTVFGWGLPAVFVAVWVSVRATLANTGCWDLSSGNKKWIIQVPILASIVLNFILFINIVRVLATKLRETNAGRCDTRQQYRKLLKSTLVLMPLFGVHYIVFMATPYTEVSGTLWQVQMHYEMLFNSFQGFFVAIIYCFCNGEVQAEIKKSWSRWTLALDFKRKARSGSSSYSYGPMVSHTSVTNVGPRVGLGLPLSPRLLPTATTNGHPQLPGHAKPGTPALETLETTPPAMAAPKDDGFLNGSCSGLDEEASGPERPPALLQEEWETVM
# [3] = target: T3, human PTH1R overexpressed on CHO cells (human, UniProt Q03431 27-593); assay: cell-based or functional assay
# T3 sequence (looked up): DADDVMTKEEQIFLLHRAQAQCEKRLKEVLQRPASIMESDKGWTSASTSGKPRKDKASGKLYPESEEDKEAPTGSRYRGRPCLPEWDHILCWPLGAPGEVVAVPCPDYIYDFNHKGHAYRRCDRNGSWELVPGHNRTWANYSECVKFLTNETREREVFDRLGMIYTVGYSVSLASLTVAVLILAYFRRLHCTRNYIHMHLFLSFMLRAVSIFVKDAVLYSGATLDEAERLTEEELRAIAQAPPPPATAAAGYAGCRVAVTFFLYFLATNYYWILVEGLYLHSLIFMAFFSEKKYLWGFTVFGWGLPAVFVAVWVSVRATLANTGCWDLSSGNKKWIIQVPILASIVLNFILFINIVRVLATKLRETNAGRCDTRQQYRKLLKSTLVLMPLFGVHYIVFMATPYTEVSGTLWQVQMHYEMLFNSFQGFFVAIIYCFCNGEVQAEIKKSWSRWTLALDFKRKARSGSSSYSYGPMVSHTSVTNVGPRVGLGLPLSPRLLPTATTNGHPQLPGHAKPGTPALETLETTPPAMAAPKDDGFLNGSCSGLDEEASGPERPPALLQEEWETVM
# [4] = target: T4, mouse PTH1R overexpressed on CHO cells (mouse, UniProt P41593 27-591); assay: cell-based or functional assay
# T4 sequence (looked up): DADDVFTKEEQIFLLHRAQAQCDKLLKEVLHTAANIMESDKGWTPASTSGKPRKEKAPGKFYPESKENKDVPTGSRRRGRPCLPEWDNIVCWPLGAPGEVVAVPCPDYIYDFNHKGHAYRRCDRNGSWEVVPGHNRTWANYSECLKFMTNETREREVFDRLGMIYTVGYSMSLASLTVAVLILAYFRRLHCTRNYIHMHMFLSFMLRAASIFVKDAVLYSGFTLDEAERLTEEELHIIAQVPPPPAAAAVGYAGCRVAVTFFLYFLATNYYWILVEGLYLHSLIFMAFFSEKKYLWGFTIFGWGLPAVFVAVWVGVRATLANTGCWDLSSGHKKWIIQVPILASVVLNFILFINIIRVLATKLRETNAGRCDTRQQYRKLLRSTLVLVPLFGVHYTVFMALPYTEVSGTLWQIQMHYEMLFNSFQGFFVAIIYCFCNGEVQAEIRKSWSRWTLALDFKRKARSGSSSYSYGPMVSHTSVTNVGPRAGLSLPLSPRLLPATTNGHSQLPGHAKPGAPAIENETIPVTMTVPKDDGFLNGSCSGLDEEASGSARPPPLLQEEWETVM
# T1 sequence (P49190 25-550): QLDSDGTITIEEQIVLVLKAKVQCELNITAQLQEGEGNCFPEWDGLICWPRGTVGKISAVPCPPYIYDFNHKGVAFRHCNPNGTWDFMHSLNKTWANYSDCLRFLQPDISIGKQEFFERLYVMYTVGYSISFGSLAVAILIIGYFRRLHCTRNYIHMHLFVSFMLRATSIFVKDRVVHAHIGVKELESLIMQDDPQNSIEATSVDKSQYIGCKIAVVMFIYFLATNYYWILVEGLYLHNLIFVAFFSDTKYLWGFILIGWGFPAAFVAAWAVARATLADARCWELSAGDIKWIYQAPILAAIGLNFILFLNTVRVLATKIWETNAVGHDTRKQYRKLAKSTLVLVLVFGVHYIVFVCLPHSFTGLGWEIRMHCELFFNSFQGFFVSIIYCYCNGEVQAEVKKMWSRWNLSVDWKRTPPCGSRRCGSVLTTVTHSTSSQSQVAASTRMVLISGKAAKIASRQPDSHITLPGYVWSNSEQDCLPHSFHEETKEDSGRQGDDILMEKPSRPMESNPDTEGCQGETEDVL
binder,measurement,setting,value
"XPA.85.329 (antibody, V domains shown, IgG; also called Ab329; XPA.329) VH: QMQLVQSGAEVKKPGSSVKVSCKASGGTFSSYAISWVRQAPGQGLEWMGGIIPIFGTANYAQKFQGRVTITADESTSTAYMELSSLRSEDTAVYYCARGYVVARLWGQGTLVTVSS VL: DIVMTQTPLSLSVTPGQPASISCKSSQSLLHIDGLTYLYWYLQKPGQPPQLLIYEVSHRFSGVSDKFSGSGSGTDFTLTISRVEAEDVGVYYCMQSLHLPITFGQGTRLEIK",binding result,[1],no binding (tested: about 160 nM)
same,EC50,[2],35.3 nM
same,"IC50, inhibition of PTH(1-34)-induced cAMP accumulation",[3],16.6 nM
same,"IC50, inhibition of PTHrP(1-34)-induced cAMP accumulation",[3],6.54 nM
same,"IC50, inhibition of PTHrP(1-34)-induced cAMP accumulation",[4],2.66 nM
